In paper PMC9436306 (Proceedings of the National Academy of Sciences of the …, 2022):

How the values were obtained:
[1] = target: T1, ESCRT-I complex (TSG101, VPS28, VPS37B, MVB12A), Cy3-labeled (human, UniProt Q99816 1-390; Q9UK41 1-221; Q9H9H4 1-285; Q96EY5 1-273); test: recruitment to giant unilamellar vesicles (GUVs), confocal fluorescence microscopy; ESCRT-I/II pathway: ALG-2 200 nM, ESCRT-I (Cy3) 50 nM, with or without ESCRT-II 200 nM and CHMP6 (Atto 488) 400 nM, incubated 15 min in reaction buffer, then 30% DOPS GUVs added and imaged after 15 min; ESCRT-I kept at a concentration at which it did not bind GUVs on its own; conditions: both partners purified
T1 construct: TSG101, subunit of human ESCRT-I; VPS28, subunit of human ESCRT-I; VPS37B, subunit of human ESCRT-I; MVB12A, subunit of human ESCRT-I; Labeled with sulpho-Cy3 maleimide on native surface-exposed cysteines; It calls human ESCRT-I a soluble heterotetramer; also called ESCRT-I (Cy3); source: HEK293 cells, purified (StrepTactin Sepharose, gel filtration); copies: + + +
T1 sequence (Q99816 whole entry, chain 1 of 4, other chains not shown): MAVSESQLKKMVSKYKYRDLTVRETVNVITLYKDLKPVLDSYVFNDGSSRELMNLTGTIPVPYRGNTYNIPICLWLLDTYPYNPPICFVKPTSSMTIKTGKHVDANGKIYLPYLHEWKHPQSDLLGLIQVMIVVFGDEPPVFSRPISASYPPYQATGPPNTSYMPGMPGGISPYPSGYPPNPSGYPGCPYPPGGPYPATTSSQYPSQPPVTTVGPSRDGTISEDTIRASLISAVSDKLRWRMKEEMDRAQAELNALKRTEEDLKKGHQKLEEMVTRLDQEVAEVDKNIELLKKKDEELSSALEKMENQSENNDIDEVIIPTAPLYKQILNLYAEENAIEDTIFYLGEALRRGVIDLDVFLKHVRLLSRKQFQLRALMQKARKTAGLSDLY
T1 sequence (Q9UK41 whole entry, chain 2 of 4, other chains not shown): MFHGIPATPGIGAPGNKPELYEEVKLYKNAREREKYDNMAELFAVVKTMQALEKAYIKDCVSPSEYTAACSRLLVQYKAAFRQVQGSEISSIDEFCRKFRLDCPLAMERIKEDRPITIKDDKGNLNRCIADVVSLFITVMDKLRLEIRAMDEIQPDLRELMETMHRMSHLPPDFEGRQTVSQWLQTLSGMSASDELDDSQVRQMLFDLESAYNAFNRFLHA
T1 sequence (Q9H9H4 whole entry, chain 3 of 4, other chains not shown): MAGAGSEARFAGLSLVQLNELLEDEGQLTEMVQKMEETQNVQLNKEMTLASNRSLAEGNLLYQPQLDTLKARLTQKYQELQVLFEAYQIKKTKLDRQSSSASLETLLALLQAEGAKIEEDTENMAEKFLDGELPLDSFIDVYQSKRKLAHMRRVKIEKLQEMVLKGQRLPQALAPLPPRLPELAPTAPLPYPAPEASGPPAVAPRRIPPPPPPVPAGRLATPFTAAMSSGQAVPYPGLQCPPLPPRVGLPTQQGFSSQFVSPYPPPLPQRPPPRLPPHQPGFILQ

[2] = target: T2, ALIX, full-length, Cy3-labeled (human, UniProt Q8WUM4 1-868, sulpho-Cy3 maleimide on native surface-exposed cysteines); test: recruitment to giant unilamellar vesicles (GUVs), confocal fluorescence microscopy; ALIX pathway: ALG-2 200 nM, ALIX 100 nM, with or without CHMP4B 10 nM, incubated 15 min in reaction buffer (25 mM Hepes pH 7.4, 125 mM NaCl, 0.2 mM TCEP), then added to 30% DOPS GUVs and imaged after 15 min at room temperature; read-out: puncta on the GUV periphery and their colocalization; conditions: both partners purified
T2 construct: ALIX (PDCD6IP), ESCRT accessory protein with Bro1 domain, V domain and proline-rich domain; also called ALIX (Cy3); source: HEK293 cells, purified (StrepTactin Sepharose, gel filtration)
T2 sequence (looked up): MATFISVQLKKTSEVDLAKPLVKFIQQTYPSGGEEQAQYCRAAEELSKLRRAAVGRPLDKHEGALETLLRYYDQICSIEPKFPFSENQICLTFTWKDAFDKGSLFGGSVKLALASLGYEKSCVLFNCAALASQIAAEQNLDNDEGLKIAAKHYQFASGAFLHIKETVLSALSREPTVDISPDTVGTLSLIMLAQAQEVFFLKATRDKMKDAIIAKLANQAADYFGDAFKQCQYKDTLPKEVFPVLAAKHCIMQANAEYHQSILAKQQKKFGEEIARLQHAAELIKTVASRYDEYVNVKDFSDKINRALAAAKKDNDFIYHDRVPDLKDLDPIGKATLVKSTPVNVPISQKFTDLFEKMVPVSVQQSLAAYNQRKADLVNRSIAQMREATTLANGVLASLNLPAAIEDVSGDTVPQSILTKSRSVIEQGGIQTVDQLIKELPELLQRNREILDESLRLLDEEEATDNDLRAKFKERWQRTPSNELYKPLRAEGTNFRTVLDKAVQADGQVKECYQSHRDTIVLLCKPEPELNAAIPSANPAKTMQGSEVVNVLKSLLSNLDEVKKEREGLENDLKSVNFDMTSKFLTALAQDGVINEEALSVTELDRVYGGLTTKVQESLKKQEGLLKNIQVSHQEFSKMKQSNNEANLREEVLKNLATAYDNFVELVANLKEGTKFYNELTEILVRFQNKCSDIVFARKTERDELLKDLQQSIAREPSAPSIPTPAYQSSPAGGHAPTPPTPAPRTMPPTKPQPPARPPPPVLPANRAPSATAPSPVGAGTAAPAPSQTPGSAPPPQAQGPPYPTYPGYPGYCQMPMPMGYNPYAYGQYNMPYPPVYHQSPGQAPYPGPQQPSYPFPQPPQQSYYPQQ

- binding result [1]: binds
- binding result [2]: binds
B1: ALG-2, fluorescently labeled (Atto 488) via A78C (natural protein, UniProt O75340 1-191, looked up)
chain: MAAYSYRPGPGAGPGPAAGAALPDQSFLWNVFQRVDKDRSGVISDTELQQALSNGTWTPFNPVTVRSIISMFDRENKCGVNFSEFTGVWKYITDWQNVFRTYDRDNSGMIDKNELKQALSGFGYRLSDQFHDILIRKFDRQGRGQIAFDDFIQGCIVLQRLTDIFRRYDTDQDGWIQVSYEQYLSMVFSIV
modifications: Atto 488 maleimide on the cysteine of A78C (25% labeling efficiency)
notes: also called ALG-2 (Atto 488); labeled ALG-2; source: E. coli BL21 (DE3), purified (Ni-NTA, gel filtration, anion exchange, gel filtration)
